Test results reported in publication PMC4005650.

Tests used:
[1] = biological target: T1, LtrA, intron-encoded protein (IEP) of the Lactococcus lactis Ll.LtrB group II intron (Lactococcus lactis), P0A3U0; test: SEC-MALS; purified +A RNP (LtrA with 902 nt intron lariat RNA) on Superdex 200 10/300 GL; 20 mM Tris pH 7.4, 200 mM KCl, 5 mM MgCl2; room temperature; mass-averaged dn/dc 0.182 ml/g; conditions: remark: other sources report otherwise
T1 chain: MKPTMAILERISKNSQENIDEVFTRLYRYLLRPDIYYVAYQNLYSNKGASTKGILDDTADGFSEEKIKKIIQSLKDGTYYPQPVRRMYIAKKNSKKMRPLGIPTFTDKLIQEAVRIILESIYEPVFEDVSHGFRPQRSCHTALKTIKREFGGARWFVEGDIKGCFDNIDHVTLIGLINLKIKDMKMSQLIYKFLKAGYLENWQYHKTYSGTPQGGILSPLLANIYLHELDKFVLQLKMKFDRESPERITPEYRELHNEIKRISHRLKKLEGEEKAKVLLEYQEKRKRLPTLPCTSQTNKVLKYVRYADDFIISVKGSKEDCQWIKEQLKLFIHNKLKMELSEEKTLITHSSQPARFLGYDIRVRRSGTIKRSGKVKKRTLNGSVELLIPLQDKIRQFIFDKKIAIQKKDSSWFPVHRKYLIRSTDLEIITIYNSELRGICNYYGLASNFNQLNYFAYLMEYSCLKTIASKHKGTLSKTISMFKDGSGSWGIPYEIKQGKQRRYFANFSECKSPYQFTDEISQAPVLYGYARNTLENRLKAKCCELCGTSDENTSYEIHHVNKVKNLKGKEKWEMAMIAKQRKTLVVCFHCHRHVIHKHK

[2] = biological target: T1, LtrA, intron-encoded protein (IEP) of …; test: AUC; sedimentation velocity of purified +A RNP at 7-14 ng/µl; 4°C; 28 000 rpm; 20 mM Tris pH 7.4, 200 mM KCl, 5 mM MgCl2; absorbance at 260 nm; SEDFIT; conditions: remark: other sources report otherwise

B1: LtrA, intron-encoded protein (IEP) of the Lactococcus lactis Ll.LtrB group II intron, P0A3U0 1-599 (natural protein)
chain: T1 chain
- stoichiometry N [1]: 2
- stoichiometry N [2]: 2
